No end group written: not given here.
Key:
[1] = corresponding value for the original scaffold protein; cited from earlier work
[2] = Chemical denaturation with guanidinium hydrochloride monitored by CD at 222 nm (thermodynamic stability); type: physicochemical
Description: The thermodynamic stability of the proteins was assessed by chemical denaturation studies, in which the CD signal at 222 nm was monitored at increasing concentrations of denaturant agent, guanidinium hydrochloride (FIG. 7B). A 1 cm path length rectangular quartz cell was used. The cell holder was temperature controlled at 25° C. The buffer was 10 mM potassium phosphate, pH 7.0. The bandwidth was 1.00 nm. At each GdnHCl concentration, cell chamber was equilibrated for 6 minutes, then data were collected. The curve is described by the equation: ΔGobs=ΔGH2O+m[GdnHCl] in which ΔGobs is the free energy for the two state unfolding equilibrium observed at a given concentration of GdnHCl, ΔGH2O is the free energy of denaturation extrapolated to zero GdnHCl concentration, m is a constant that provide a measure of the cooperativity of the process.
The resulting sigmoidal curve was analyzed to extrapolate the free energy of folding, ΔG, estimated to be −4.2 Kcal/mol; the corresponding ΔG for 1LQ7 is −4.6 Kcal/mol.

[3] = system: macrophages; assay: Quantification of phagocytosis of IgG-opsonized FITC latex beads by flow cytometry (in vitro macrophage activation test); type: cell-based; conditions: cells stimulated overnight, then 30' with FITC beads conjugated with IgG
Description: The present invention discloses a method for rapid, quantitative in vitro testing for macrophage activation. Phagocytosis is a cytoskeleton-dependent process of engulfment of large particles. Phagocytes use various surface receptors to bind and internalize the foreign particles for processing the pathogens in lysosomes (phagolysosomes) for presentation of antigens to the immune system. The effects of Gc-MAF with both positive and negative controls of phagocytosis are determined. As positive controls, macrophages are also stimulated with Beta-1,3 glucans, a well-known immune stimulator, for functional comparison. Specifically, curdlan, linear (1,3)-Beta-D-glucans are used. […] Once the cells are suspended in the culture medium, quantification of phagocytosis is accomplished by flow cytometry. One unique feature of flow cytometry is that it measures fluorescence per cell or particle. FIG. 8 illustrates the quantification of phagocytosis by flow cytometry. […] A FACSCalibur (FACS=Fluorescence Activated Cell Sorter) system (Becton Dickinson) equipped with an air-cooled argon ion laser (488 nm, 15 mW output) is used for this study. Forward light scatter (FSC) and 90° light scatter (SSC) were measured at 488 nm and fluorescence emissions (FL parameters) were collected using the FSC as the triggering signal. Fluorescence data was reported by CellQuest software (Becton Dickinson). […]

[4] = system: macrophages; conditions: cited from earlier work

1LQ7: stable designed three-helix bundle scaffold from the Protein Data Bank, originally designed at the University of Pennsylvania (chain 1 GSRVKALEEKVKALEEKVKALGGGG; chain 2 RIEELKKKWEELKKKIEELGGGG; chain 3 EVKKVEEEVKKLEEEIKKL; not fully specified (N-terminus); also: helices are one chain joined by GGGG loops)
free energy of folding, ΔG (scaffold) [1]: -4.6 kcal/mol

MM1: 69 residue three-helix bundle peptide: scaffold 1LQ7 with both loops replaced by Gc-MAF Domain III loop; non-glycosylated analog, negative control (chain 1 Ac-GSRVKALEEKVKALEEKVKALGNAT; chain 2 PTELAKKKWEELKKKIEELGNATPT; chain 3 EVKKVEEEVKKLEEEIKKL-NH2; not fully specified (N-terminus); also: helices are one chain joined by the loops, non-glycosylated)
free energy of folding, ΔG ([2]; GdnHCl denaturation, 25° C., 10 mM potassium phosphate, pH 7.0, extrapolated to zero GdnHCl): -4.2 kcal/mol | free energy of folding relative to that of the original scaffold protein, 1LQ7 ([2]; difference from 1LQ7): ≤ 30% | aggregation state ([2]; helical content at room temperature and free energy of folding independent of concentration, corroborated by equilibrium sedimentation): monomeric

B1: Gc-MAF: serum glycoprotein macrophage activating factor, formed from Vitamin D Binding Protein by post-translation modifications (protein, UniProt P02774 17-474, looked up)
Vitamin D-binding protein: LERGRDYEKNKVCKEFSHLGKEDFTSLSLVLYSRKFPSGTFEQVSQLVKEVVSLTEACCAEGADPDCYDTRTSALSAKSCESNSPFPVHPGTAECCTKEGLERKLCMAALKHQPQEFPTYVEPTNDEICEAFRKDPKEYANQFMWEYSTNYGQAPLSLLVSYTKSYLSMVGSCCTSASPTVCFLKERLQLKHLSLLTTLSNRVCSQYAAYGEKKSRLSNLIKLAQKVPTADLEDVLPLAEDITNILSKCCESASEDCMAKELPEHTVKLCDNLSTKNSKFEDCCQEKTAMDVFVCTYFMPAAQLPELPDVELPTNKDVCDPGNTKVMDKYTFELSRRTHLPEVFLSKVLEPTLKSLGECCDVEDSTTCFNAKGPLLKKELSSFIDKGQELCADYSENTFTEYKKKLAERLKAKLPDATPTELAKLVNKHSDFASNCCSINSPPLYCDSEIDAELKNIL
modifications: deglycosylated macrophage activating form
mean fluorescence intensity ([3]; FL1 channel, non-stimulated control 543±149): 724±155 | percentage of cells positive to phagocytosis (M2) ([3]; non-stimulated control 43.6±10.3%): 57.5±6.6% | time to macrophage activation ([4]; enzymatically activated Gc-MAF given to Ehrlich ascite tumor-bearing mice): less than 6 hr | time to substantially increased initiation of antibody production ([4]; injection of Gc-MAF): ≤ 48 h

Reference: patent US20070275001A1, “Rational Design and Engineering of Proteins and Peptides for Immunomodulation” (Arizona Board of Regents, priority 2004, published 2007)
